Results from publication PMC5493658, “Post-secretional activation of Protease IV by quorum sensing in Pseudomonas aeruginosa” (Scientific Reports, 2017).

Biological target: T1, P-PIV: His-tagged protease IV (PIV) purified from PAO-T7 (Pseudomonas aeruginosa, UniProt Q9HWK6 212-462)
T1 construct: Protease IV (PIV), lysyl-endopeptidase encoded by piv, Pseudomonas aeruginosa; 26 kDa mature PIV left after removal of the signal peptide and the propeptide (residues 1-211 of the 48 kDa prepro-PIV); because the N-terminus is processed twice during secretion it is probably C-terminal (surmise); also called His-tagged active PIV; mature PIV; source: P. aeruginosa PAO-T7 harboring pQF21c-PIV, …
T1 sequence: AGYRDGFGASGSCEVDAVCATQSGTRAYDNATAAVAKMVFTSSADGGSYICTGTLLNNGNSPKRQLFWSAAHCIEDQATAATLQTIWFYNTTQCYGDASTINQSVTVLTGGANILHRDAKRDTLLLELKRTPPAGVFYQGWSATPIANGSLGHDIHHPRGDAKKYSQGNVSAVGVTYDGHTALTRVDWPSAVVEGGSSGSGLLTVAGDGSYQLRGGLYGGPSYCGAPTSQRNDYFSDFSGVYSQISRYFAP
Test: pull-down; 1 ug purified propeptide mixed with 1 ug His-tagged P-PIV in 25 ul, room temperature 10 min; loaded on Ni-NTA agarose column, washed twice with 5 mM imidazole, eluted with 200 mM imidazole; SDS-PAGE
Conditions: both partners purified

B1: propeptide of PIV purified from E. coli (domain or fragment)
chain: APGASEMAGDVAVLQASPASTGHARFANPNAAISAAGIHFAAPPARRVARAAPLAPKPGTPLQVGVGLKTATPEIDLTTLEWIDTPDGRHTARFPISAAGAASLRAAIRLETHSGSLPDDVLLHFAGAGKEIFEASGKDLSVNRPYWSPVIEGDTLTVELVLPANLQPGDLRLSVPQVSYFADSLYK
notes: Propeptide of protease IV (PIV), Pseudomonas aeruginosa; expressed as residues 1-211 of prepro-PIV (signal peptide and propeptide); also called purified propeptide; PP; source: E. coli BL21 (DE3) harboring pET16b-pro, purified (Ni-NTA, Q sepharose, size exclusion chromatography); not shown: His tag, N-terminal, cleaved
B1: binds.
